{"source": "paper PMC2665062", "about": "(The Journal of Biological Chemistry, 2009)", "binders": {"B1": {"name": "Plasmodium falciparum nucleosome assembly protein PfNapL, wild type (natural protein, UniProt Q8I608 1-347, looked up)", "chain": "MAANEGNQPIPPEEEKEISSLLESIKIDDDKMTDLTEEQKETLKKLKLYQKEYYDYESKFEYELFLLRQKYHDLYGPIYDKRREALVGNGEAKIGTPNLPEFWLRALRNNNTVSHVIEDHDEEILVYLNDIRCDYIKKNKEKKEGFILSFYFATNPFFSNSVLTKTYHMKCVDCDNEPVLLHTEATVIDWYDNKNILKKNVVKKQHNKNSREVKTVQQTVNRDSFFHFFTSHKVPNSNVIKQLSKHEVAQLEMIIEGDYEVALTIKERIIPYAVDYYLGIIIESESNSIVSDVDSSYSSSENNSNYNSYESNNSAYNDENSNVDTNEYDDNEEEEEGAKSNEDPLTS"}, "B2": {"name": "PfNapL D192A (natural protein)", "chain": "MAANEGNQPIPPEEEKEISSLLESIKIDDDKMTDLTEEQKETLKKLKLYQKEYYDYESKFEYELFLLRQKYHDLYGPIYDKRREALVGNGEAKIGTPNLPEFWLRALRNNNTVSHVIEDHDEEILVYLNDIRCDYIKKNKEKKEGFILSFYFATNPFFSNSVLTKTYHMKCVDCDNEPVLLHTEATVIDWYANKNILKKNVVKKQHNKNSREVKTVQQTVNRDSFFHFFTSHKVPNSNVIKQLSKHEVAQLEMIIEGDYEVALTIKERIIPYAVDYYLGIIIESESNSIVSDVDSSYSSSENNSNYNSYESNNSAYNDENSNVDTNEYDDNEEEEEGAKSNEDPLTS"}, "B3": {"name": "PfNapL E260A (natural protein)", "chain": "MAANEGNQPIPPEEEKEISSLLESIKIDDDKMTDLTEEQKETLKKLKLYQKEYYDYESKFEYELFLLRQKYHDLYGPIYDKRREALVGNGEAKIGTPNLPEFWLRALRNNNTVSHVIEDHDEEILVYLNDIRCDYIKKNKEKKEGFILSFYFATNPFFSNSVLTKTYHMKCVDCDNEPVLLHTEATVIDWYDNKNILKKNVVKKQHNKNSREVKTVQQTVNRDSFFHFFTSHKVPNSNVIKQLSKHEVAQLEMIIEGDYAVALTIKERIIPYAVDYYLGIIIESESNSIVSDVDSSYSSSENNSNYNSYESNNSAYNDENSNVDTNEYDDNEEEEEGAKSNEDPLTS"}, "B4": {"name": "PfNapL H227A (natural protein)", "chain": "MAANEGNQPIPPEEEKEISSLLESIKIDDDKMTDLTEEQKETLKKLKLYQKEYYDYESKFEYELFLLRQKYHDLYGPIYDKRREALVGNGEAKIGTPNLPEFWLRALRNNNTVSHVIEDHDEEILVYLNDIRCDYIKKNKEKKEGFILSFYFATNPFFSNSVLTKTYHMKCVDCDNEPVLLHTEATVIDWYDNKNILKKNVVKKQHNKNSREVKTVQQTVNRDSFFAFFTSHKVPNSNVIKQLSKHEVAQLEMIIEGDYEVALTIKERIIPYAVDYYLGIIIESESNSIVSDVDSSYSSSENNSNYNSYESNNSAYNDENSNVDTNEYDDNEEEEEGAKSNEDPLTS"}, "B5": {"name": "PfNapL K266A (natural protein)", "chain": "MAANEGNQPIPPEEEKEISSLLESIKIDDDKMTDLTEEQKETLKKLKLYQKEYYDYESKFEYELFLLRQKYHDLYGPIYDKRREALVGNGEAKIGTPNLPEFWLRALRNNNTVSHVIEDHDEEILVYLNDIRCDYIKKNKEKKEGFILSFYFATNPFFSNSVLTKTYHMKCVDCDNEPVLLHTEATVIDWYDNKNILKKNVVKKQHNKNSREVKTVQQTVNRDSFFHFFTSHKVPNSNVIKQLSKHEVAQLEMIIEGDYEVALTIAERIIPYAVDYYLGIIIESESNSIVSDVDSSYSSSENNSNYNSYESNNSAYNDENSNVDTNEYDDNEEEEEGAKSNEDPLTS"}, "B6": {"name": "PfNapL T230A (natural protein)", "chain": "MAANEGNQPIPPEEEKEISSLLESIKIDDDKMTDLTEEQKETLKKLKLYQKEYYDYESKFEYELFLLRQKYHDLYGPIYDKRREALVGNGEAKIGTPNLPEFWLRALRNNNTVSHVIEDHDEEILVYLNDIRCDYIKKNKEKKEGFILSFYFATNPFFSNSVLTKTYHMKCVDCDNEPVLLHTEATVIDWYDNKNILKKNVVKKQHNKNSREVKTVQQTVNRDSFFHFFASHKVPNSNVIKQLSKHEVAQLEMIIEGDYEVALTIKERIIPYAVDYYLGIIIESESNSIVSDVDSSYSSSENNSNYNSYESNNSAYNDENSNVDTNEYDDNEEEEEGAKSNEDPLTS"}, "B7": {"name": "PfNapL Y259A (natural protein)", "chain": "MAANEGNQPIPPEEEKEISSLLESIKIDDDKMTDLTEEQKETLKKLKLYQKEYYDYESKFEYELFLLRQKYHDLYGPIYDKRREALVGNGEAKIGTPNLPEFWLRALRNNNTVSHVIEDHDEEILVYLNDIRCDYIKKNKEKKEGFILSFYFATNPFFSNSVLTKTYHMKCVDCDNEPVLLHTEATVIDWYDNKNILKKNVVKKQHNKNSREVKTVQQTVNRDSFFHFFTSHKVPNSNVIKQLSKHEVAQLEMIIEGDAEVALTIKERIIPYAVDYYLGIIIESESNSIVSDVDSSYSSSENNSNYNSYESNNSAYNDENSNVDTNEYDDNEEEEEGAKSNEDPLTS"}}}
{"biological_target": "the molecule itself", "experiment": "crystal structure"}
{"binder": "B1", "binding result": "binds"}
{"biological_target": "histone H4 (calf thymus) (calf, UniProt P62803 1-103)", "experiment": "ELISA"}
{"binder": "B1", "binding result": "binds"}
{"binder": "B2", "binding result": "binds"}
{"binder": "B3", "binding result": "binds"}
{"binder": "B4", "binding result": "binds"}
{"binder": "B5", "binding result": "binds"}
{"binder": "B6", "binding result": "binds"}
{"binder": "B7", "binding result": "binds"}
